Measurements as given in publication PMC9482650, “Quantitative fragmentomics allow affinity mapping of interactomes” (Nature Communications, 2022).

Tests used:
Experiment in all cases: holdup assay
Set-up in all cases: key: below the threshold = too weak to quantify, mostly under pKd 3.1 to 4
AHNAK1, Q09666 = target: AHNAK1, Q09666
DFNB31_3, Q9P202 = target: T1, DFNB31_3, Q9P202
T1 sequence (Q9P202 811-907, limits assumed, looked up): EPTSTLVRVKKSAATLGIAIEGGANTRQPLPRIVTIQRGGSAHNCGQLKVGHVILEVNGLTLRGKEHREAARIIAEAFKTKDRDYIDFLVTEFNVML

DLG3_2, Q92796 = target: T2, DLG3_2, Q92796
T2 sequence (Q92796 221-321, limits assumed, looked up): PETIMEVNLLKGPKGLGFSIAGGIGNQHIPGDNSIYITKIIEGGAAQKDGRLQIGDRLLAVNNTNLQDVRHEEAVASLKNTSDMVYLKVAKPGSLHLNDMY

DVL3, Q92997 = target: T3, DVL3, Q92997
T3 sequence (Q92997 244-331, limits assumed, looked up): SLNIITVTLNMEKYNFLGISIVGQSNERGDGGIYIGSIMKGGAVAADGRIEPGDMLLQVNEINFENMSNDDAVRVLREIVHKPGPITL

FRMPD2_3, Q68DX3 = target: FRMPD2_3, Q68DX3
Sequence of FRMPD2_3, Q68DX3 (Q68DX3 1073-1166): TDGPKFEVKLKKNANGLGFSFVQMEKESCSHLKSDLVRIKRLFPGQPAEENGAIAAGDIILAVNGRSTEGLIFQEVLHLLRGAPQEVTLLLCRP

FRMPD4, Q14CM0 = target: FRMPD4, Q14CM0
Sequence of FRMPD4, Q14CM0 (Q14CM0 67-160): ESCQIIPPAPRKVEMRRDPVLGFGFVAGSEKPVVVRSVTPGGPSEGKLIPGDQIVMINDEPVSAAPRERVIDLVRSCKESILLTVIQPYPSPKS

GORASP1, Q9BQQ3 = target: GORASP1, Q9BQQ3
Sequence of GORASP1, Q9BQQ3 (Q9BQQ3 1-208): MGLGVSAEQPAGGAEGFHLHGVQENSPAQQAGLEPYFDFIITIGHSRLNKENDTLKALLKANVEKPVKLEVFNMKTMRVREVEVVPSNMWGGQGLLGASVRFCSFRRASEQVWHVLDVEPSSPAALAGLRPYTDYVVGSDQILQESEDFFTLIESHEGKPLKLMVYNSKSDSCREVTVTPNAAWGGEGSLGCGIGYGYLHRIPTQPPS

GORASP2, Q9H8Y8 = target: GORASP2, Q9H8Y8
GRID2IP_1, A4D2P6 = target: GRID2IP_1, A4D2P6
Sequence of GRID2IP_1, A4D2P6 (A4D2P6 1-87): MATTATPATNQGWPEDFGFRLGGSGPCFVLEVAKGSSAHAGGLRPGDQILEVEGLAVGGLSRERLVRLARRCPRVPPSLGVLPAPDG

GRIP1_5, Q9Y3R0 = target: T4, GRIP1_5, Q9Y3R0
T4 sequence (Q9Y3R0 568-668, limits assumed, looked up): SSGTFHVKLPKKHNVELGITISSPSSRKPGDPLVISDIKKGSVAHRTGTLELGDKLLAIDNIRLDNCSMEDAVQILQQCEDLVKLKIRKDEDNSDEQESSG

GRIP2_3, Q9C0E4 = target: GRIP2_3, Q9C0E4
Sequence of GRIP2_3, Q9C0E4 (Q9C0E4 238-339): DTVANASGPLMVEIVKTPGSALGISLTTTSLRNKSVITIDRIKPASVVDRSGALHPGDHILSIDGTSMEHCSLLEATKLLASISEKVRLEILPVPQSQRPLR

Inadl_2, Q8NI35 = target: Inadl_2, Q8NI35
Sequence of Inadl_2, Q8NI35 (Q8NI35 238-335): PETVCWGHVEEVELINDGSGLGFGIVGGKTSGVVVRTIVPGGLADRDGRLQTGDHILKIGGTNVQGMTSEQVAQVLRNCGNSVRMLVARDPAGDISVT

LIN7C, Q9NUP9 = target: T5, LIN7C, Q9NUP9
T5 sequence (Q9NUP9 88-185, limits assumed, looked up): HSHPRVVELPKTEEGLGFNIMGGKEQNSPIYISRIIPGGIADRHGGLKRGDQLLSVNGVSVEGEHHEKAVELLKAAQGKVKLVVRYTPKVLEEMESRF

LNX1_2, Q8TBB1 = target: LNX1_2, Q8TBB1
Sequence of LNX1_2, Q8TBB1 (Q8TBB1 371-470): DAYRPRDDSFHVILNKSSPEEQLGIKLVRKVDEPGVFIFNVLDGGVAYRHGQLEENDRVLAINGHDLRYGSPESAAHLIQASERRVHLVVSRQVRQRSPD

LNX2_2, Q8N448 = target: T6, LNX2_2, Q8N448
T6 sequence (Q8N448 334-432, limits assumed, looked up): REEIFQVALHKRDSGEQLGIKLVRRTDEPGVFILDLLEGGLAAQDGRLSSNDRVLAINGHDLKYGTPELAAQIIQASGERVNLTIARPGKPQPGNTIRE

MAGI3_2, Q5TCQ9 = target: MAGI3_2, Q5TCQ9
Sequence of MAGI3_2, Q5TCQ9 (Q5TCQ9 398-503): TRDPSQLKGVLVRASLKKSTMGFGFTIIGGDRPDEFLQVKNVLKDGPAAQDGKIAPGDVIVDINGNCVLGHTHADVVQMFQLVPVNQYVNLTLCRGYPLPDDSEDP

MPDZ_5, O75970 = target: T7, MPDZ_5, O75970
T7 sequence (O75970 695-796, limits assumed, looked up): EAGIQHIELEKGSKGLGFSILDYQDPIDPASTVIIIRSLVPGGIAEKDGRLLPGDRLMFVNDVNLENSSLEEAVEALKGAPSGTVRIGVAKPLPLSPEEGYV

NHERF3_3, Q5T2W1 = target: T8, NHERF3_3, Q5T2W1
T8 sequence (Q5T2W1 238-333, limits assumed, looked up): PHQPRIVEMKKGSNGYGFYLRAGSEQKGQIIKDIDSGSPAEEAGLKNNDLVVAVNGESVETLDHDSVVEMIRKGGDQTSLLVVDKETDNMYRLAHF

NHERF3_4, Q5T2W1 = target: T9, NHERF3_4, Q5T2W1
T9 sequence (Q5T2W1 373-468, limits assumed, looked up): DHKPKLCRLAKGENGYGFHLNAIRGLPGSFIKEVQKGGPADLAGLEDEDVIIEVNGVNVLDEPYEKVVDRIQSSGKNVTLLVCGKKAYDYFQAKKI

PICK1, Q9NRD5 = target: PICK1, Q9NRD5
Sequence of PICK1, Q9NRD5 (Q9NRD5 17-115): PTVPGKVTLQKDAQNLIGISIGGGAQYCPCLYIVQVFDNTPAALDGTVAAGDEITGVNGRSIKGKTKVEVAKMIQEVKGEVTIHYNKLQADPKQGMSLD

SCRIB_2, Q14160 = target: SCRIB_2, Q14160
Sequence of SCRIB_2, Q14160 (Q14160 857-960): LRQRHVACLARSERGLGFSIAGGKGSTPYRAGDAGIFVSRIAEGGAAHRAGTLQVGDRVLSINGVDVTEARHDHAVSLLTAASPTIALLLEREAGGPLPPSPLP

SHANK1, Q9Y566 = target: T10, SHANK1, Q9Y566
T10 sequence (Q9Y566 658-767, limits assumed, looked up): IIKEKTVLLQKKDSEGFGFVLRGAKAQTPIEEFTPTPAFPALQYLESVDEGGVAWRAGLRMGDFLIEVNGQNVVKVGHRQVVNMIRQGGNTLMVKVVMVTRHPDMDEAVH

SIPA1L2, Q9P2F8 = target: T11, SIPA1L2, Q9P2F8
T11 sequence (Q9P2F8 945-1036, limits assumed, looked up): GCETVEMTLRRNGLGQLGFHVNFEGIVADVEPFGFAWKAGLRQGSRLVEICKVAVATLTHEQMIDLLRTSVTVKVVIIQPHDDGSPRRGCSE

SNTB1, Q13884 = target: T12, SNTB1, Q13884
T12 sequence (Q13884 107-205, limits assumed, looked up): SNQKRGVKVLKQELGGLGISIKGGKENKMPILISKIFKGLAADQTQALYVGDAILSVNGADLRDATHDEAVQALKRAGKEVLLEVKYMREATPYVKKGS

TJP1_2, Q07157 = target: TJP1_2, Q07157
Sequence of TJP1_2, Q07157 (Q07157 181-274): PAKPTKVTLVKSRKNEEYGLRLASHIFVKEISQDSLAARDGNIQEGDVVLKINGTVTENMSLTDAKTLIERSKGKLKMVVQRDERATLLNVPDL

[1] = plain residues with an end cap or a label only (N-terminal biotin on a linker: ado-ado)
[2] = plain residues with an end cap or a label only (N-terminal biotin on a linker: ahx)

Sequence of AHNAK1, Q09666 (Q09666 4-100): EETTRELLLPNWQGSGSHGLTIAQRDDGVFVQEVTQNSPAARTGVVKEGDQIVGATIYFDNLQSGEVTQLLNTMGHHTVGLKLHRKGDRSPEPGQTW

B1: CIB2, O75838 (peptide)
chain: DFLSTFHIRI
AHNAK1, Q09666; [1]
  pKd: below the threshold
DFNB31_3, Q9P202; [1]
  pKd: 3.5
DLG3_2, Q92796; [1]
  pKd: 3.97
DVL3, Q92997; [1]
  pKd: 3.59
FRMPD2_3, Q68DX3; [1]
  pKd: below the threshold
FRMPD4, Q14CM0; [1]
  pKd: below the threshold
GORASP1, Q9BQQ3; [1]
  pKd: 4.59
GORASP2, Q9H8Y8; [1]
  pKd: 4.46
GRID2IP_1, A4D2P6; [1]
  pKd: below the threshold
GRIP1_5, Q9Y3R0; [1]
  pKd: below the threshold
GRIP2_3, Q9C0E4; [1]
  pKd: below the threshold
Inadl_2, Q8NI35; [1]
  pKd: below the threshold
LIN7C, Q9NUP9; [1]
  pKd: below the threshold
LNX1_2, Q8TBB1; [1]
  pKd: below the threshold
LNX2_2, Q8N448; [1]
  pKd: 3.74
MAGI3_2, Q5TCQ9; [1]
  pKd: 4.3
MPDZ_5, O75970; [1]
  pKd: below the threshold
NHERF3_3, Q5T2W1; [1]
  pKd: below the threshold
NHERF3_4, Q5T2W1; [1]
  pKd: 3.66
PICK1, Q9NRD5; [1]
  pKd: below the threshold
SCRIB_2, Q14160; [1]
  pKd: below the threshold
SHANK1, Q9Y566; [1]
  pKd: below the threshold
SIPA1L2, Q9P2F8; [1]
  pKd: below the threshold
SNTB1, Q13884; [1]
  pKd: below the threshold
TJP1_2, Q07157; [1]
  pKd: below the threshold

B2: PTPRG, P23470 (peptide)
chain: DPAESMESLV
AHNAK1, Q09666; [1]
  pKd: below the threshold
DFNB31_3, Q9P202; [1]
  pKd: 3.88
DLG3_2, Q92796; [1]
  pKd: 4.72
DVL3, Q92997; [1]
  pKd: below the threshold
FRMPD2_3, Q68DX3; [1]
  pKd: below the threshold
FRMPD4, Q14CM0; [1]
  pKd: 3.58
GORASP1, Q9BQQ3; [1]
  pKd: below the threshold
GORASP2, Q9H8Y8; [1]
  pKd: below the threshold
GRID2IP_1, A4D2P6; [1]
  pKd: below the threshold
GRIP1_5, Q9Y3R0; [1]
  pKd: below the threshold
GRIP2_3, Q9C0E4; [1]
  pKd: below the threshold
Inadl_2, Q8NI35; [1]
  pKd: 3.5
LIN7C, Q9NUP9; [1]
  pKd: 3.94
LNX1_2, Q8TBB1; [1]
  pKd: below the threshold
LNX2_2, Q8N448; [1]
  pKd: 4.3
MAGI3_2, Q5TCQ9; [1]
  pKd: 4.84
MPDZ_5, O75970; [1]
  pKd: below the threshold
NHERF3_3, Q5T2W1; [1]
  pKd: below the threshold
NHERF3_4, Q5T2W1; [1]
  pKd: below the threshold
PICK1, Q9NRD5; [1]
  pKd: 4.13
SCRIB_2, Q14160; [1]
  pKd: 3.68
SHANK1, Q9Y566; [1]
  pKd: below the threshold
SIPA1L2, Q9P2F8; [1]
  pKd: below the threshold
SNTB1, Q13884; [1]
  pKd: 4.84
TJP1_2, Q07157; [1]
  pKd: below the threshold

B3: RTKN, Q9BST9 (peptide)
chain: QPRTWLQSPV
AHNAK1, Q09666; [2]
  pKd: below the threshold
DFNB31_3, Q9P202; [2]
  pKd: below the threshold
DLG3_2, Q92796; [2]
  pKd: 4.04
DVL3, Q92997; [2]
  pKd: below the threshold
FRMPD2_3, Q68DX3; [2]
  pKd: below the threshold
FRMPD4, Q14CM0; [2]
  pKd: below the threshold
GORASP1, Q9BQQ3; [2]
  pKd: below the threshold
GORASP2, Q9H8Y8; [2]
  pKd: below the threshold
GRID2IP_1, A4D2P6; [2]
  pKd: below the threshold
GRIP1_5, Q9Y3R0; [2]
  pKd: below the threshold
GRIP2_3, Q9C0E4; [2]
  pKd: below the threshold
Inadl_2, Q8NI35; [2]
  pKd: below the threshold
LIN7C, Q9NUP9; [2]
  pKd: below the threshold
LNX1_2, Q8TBB1; [2]
  pKd: below the threshold
LNX2_2, Q8N448; [2]
  pKd: below the threshold
MAGI3_2, Q5TCQ9; [2]
  pKd: 4.53
MPDZ_5, O75970; [2]
  pKd: below the threshold
NHERF3_3, Q5T2W1; [2]
  pKd: below the threshold
NHERF3_4, Q5T2W1; [2]
  pKd: below the threshold
PICK1, Q9NRD5; [2]
  pKd: below the threshold
SCRIB_2, Q14160; [2]
  pKd: below the threshold
SHANK1, Q9Y566; [2]
  pKd: 3.74
SIPA1L2, Q9P2F8; [2]
  pKd: below the threshold
SNTB1, Q13884; [2]
  pKd: below the threshold
TJP1_2, Q07157; [2]
  pKd: below the threshold

B4: FZD10, Q9ULW2 (peptide)
chain: EIPAQSPTCV
AHNAK1, Q09666; [1]
  pKd: 3.57
DFNB31_3, Q9P202; [1]
  pKd: below the threshold
DLG3_2, Q92796; [1]
  pKd: 3.88
DVL3, Q92997; [1]
  pKd: 3.6
FRMPD2_3, Q68DX3; [1]
  pKd: 3.77
FRMPD4, Q14CM0; [1]
  pKd: 3.75
GORASP1, Q9BQQ3; [1]
  pKd: 3.85
GORASP2, Q9H8Y8; [1]
  pKd: 3.98
GRID2IP_1, A4D2P6; [1]
  pKd: 3.72
GRIP1_5, Q9Y3R0; [1]
  pKd: below the threshold
GRIP2_3, Q9C0E4; [1]
  pKd: 3.61
Inadl_2, Q8NI35; [1]
  pKd: 3.58
LIN7C, Q9NUP9; [1]
  pKd: below the threshold
LNX1_2, Q8TBB1; [1]
  pKd: 4.13
LNX2_2, Q8N448; [1]
  pKd: 5.04
MAGI3_2, Q5TCQ9; [1]
  pKd: 4.12
MPDZ_5, O75970; [1]
  pKd: below the threshold
NHERF3_3, Q5T2W1; [1]
  pKd: 3.57
NHERF3_4, Q5T2W1; [1]
  pKd: below the threshold
PICK1, Q9NRD5; [1]
  pKd: 3.51
SCRIB_2, Q14160; [1]
  pKd: below the threshold
SHANK1, Q9Y566; [1]
  pKd: 3.62
SIPA1L2, Q9P2F8; [1]
  pKd: 3.69
SNTB1, Q13884; [1]
  pKd: 3.75
TJP1_2, Q07157; [1]
  pKd: 3.78
